Results from the Human Domainome abundance scans (Beltran et al. 2025).
± gives the uncertainty stated by the source.

B1: TOX high mobility group box family member 3, residues 256 to 323; numbered along this chain, O15405 (parent)
chain: QKPVSAYALFFRDTQAAIKGQNPNATFGEVSKIVASMWDSLGEEQKQVYKRKTEAAKKEYLKALAAYR

Variants of: B1
Assay: abundance fitness (aPCA) (normalised: wild type 0, dead -1); higher = more abundant; growth selection in yeast, the domain comes from the species named
Conditions: Homo sapiens
QKPVSAYALFFRDTQAAIKGQNPNATFHEVSKIVASMWDSLGEEQKQVYKRKTEAAKKEYLKALAAYR [G28H] gave an abundance fitness of -0.026 ± 0.098.
QKPVSAYALFFRDTQAAIKGQNPNATFIEVSKIVASMWDSLGEEQKQVYKRKTEAAKKEYLKALAAYR [G28I] showed an abundance fitness of -0.076 ± 0.23.
For QKPVSAYALFFRDTQAAIKGQNPNATFKEVSKIVASMWDSLGEEQKQVYKRKTEAAKKEYLKALAAYR [G28K], the abundance fitness was -0.027 ± 0.073.
Variant QKPVSAYALFFRDTQAAIKGQNPNATFMEVSKIVASMWDSLGEEQKQVYKRKTEAAKKEYLKALAAYR [G28M] has an abundance fitness of -0.179 ± 0.063.
QKPVSAYALFFRDTQAAIKGQNPNATFNEVSKIVASMWDSLGEEQKQVYKRKTEAAKKEYLKALAAYR [G28N] showed an abundance fitness of 0.117 ± 0.16.
Variant QKPVSAYALFFRDTQAAIKGQNPNATFPEVSKIVASMWDSLGEEQKQVYKRKTEAAKKEYLKALAAYR [G28P] has an abundance fitness of 0.05 ± 0.049.
Variant QKPVSAYALFFRDTQAAIKGQNPNATFQEVSKIVASMWDSLGEEQKQVYKRKTEAAKKEYLKALAAYR [G28Q] has an abundance fitness of -0.159 ± 0.1.
For QKPVSAYALFFRDTQAAIKGQNPNATFREVSKIVASMWDSLGEEQKQVYKRKTEAAKKEYLKALAAYR [G28R], the abundance fitness was 0.118 ± 0.04.
For QKPVSAYALFFRDTQAAIKGQNPNATFSEVSKIVASMWDSLGEEQKQVYKRKTEAAKKEYLKALAAYR [G28S], the abundance fitness was 0.013 ± 0.046.
Variant QKPVSAYALFFRDTQAAIKGQNPNATFTEVSKIVASMWDSLGEEQKQVYKRKTEAAKKEYLKALAAYR [G28T] has an abundance fitness of -0.028 ± 0.086.
In the case of QKPVSAYALFFRDTQAAIKGQNPNATFVEVSKIVASMWDSLGEEQKQVYKRKTEAAKKEYLKALAAYR [G28V], the abundance fitness is reported as -0.12 ± 0.056.
In the case of QKPVSAYALFFRDTQAAIKGQNPNATFWEVSKIVASMWDSLGEEQKQVYKRKTEAAKKEYLKALAAYR [G28W], the abundance fitness is reported as -0.175 ± 0.06.
QKPVSAYALFFRDTQAAIKGQNPNATFYEVSKIVASMWDSLGEEQKQVYKRKTEAAKKEYLKALAAYR [G28Y] showed an abundance fitness of -0.5 ± 0.15.
For QKPVSAYALFFRDTQAAIKGQNPNATFGAVSKIVASMWDSLGEEQKQVYKRKTEAAKKEYLKALAAYR [E29A], the abundance fitness was -0.326 ± 0.09.
QKPVSAYALFFRDTQAAIKGQNPNATFGCVSKIVASMWDSLGEEQKQVYKRKTEAAKKEYLKALAAYR [E29C] gave an abundance fitness of -0.643 ± 0.1.
Work on QKPVSAYALFFRDTQAAIKGQNPNATFGDVSKIVASMWDSLGEEQKQVYKRKTEAAKKEYLKALAAYR [E29D] yielded an abundance fitness of -0.174 ± 0.087.
Variant QKPVSAYALFFRDTQAAIKGQNPNATFGFVSKIVASMWDSLGEEQKQVYKRKTEAAKKEYLKALAAYR [E29F] has an abundance fitness of -0.431 ± 0.14.
With QKPVSAYALFFRDTQAAIKGQNPNATFGGVSKIVASMWDSLGEEQKQVYKRKTEAAKKEYLKALAAYR [E29G] the abundance fitness was -0.959 ± 0.22.
For QKPVSAYALFFRDTQAAIKGQNPNATFGHVSKIVASMWDSLGEEQKQVYKRKTEAAKKEYLKALAAYR [E29H], the abundance fitness was -0.501 ± 0.082.
With QKPVSAYALFFRDTQAAIKGQNPNATFGKVSKIVASMWDSLGEEQKQVYKRKTEAAKKEYLKALAAYR [E29K] the abundance fitness was -0.534 ± 0.15.
For QKPVSAYALFFRDTQAAIKGQNPNATFGLVSKIVASMWDSLGEEQKQVYKRKTEAAKKEYLKALAAYR [E29L], the abundance fitness was -0.832 ± 0.099.
With QKPVSAYALFFRDTQAAIKGQNPNATFGMVSKIVASMWDSLGEEQKQVYKRKTEAAKKEYLKALAAYR [E29M] the abundance fitness was -0.564 ± 0.12.
QKPVSAYALFFRDTQAAIKGQNPNATFGNVSKIVASMWDSLGEEQKQVYKRKTEAAKKEYLKALAAYR [E29N] showed an abundance fitness of -0.543 ± 0.12.
Work on QKPVSAYALFFRDTQAAIKGQNPNATFGPVSKIVASMWDSLGEEQKQVYKRKTEAAKKEYLKALAAYR [E29P] yielded an abundance fitness of -0.802 ± 0.18.
Work on QKPVSAYALFFRDTQAAIKGQNPNATFGRVSKIVASMWDSLGEEQKQVYKRKTEAAKKEYLKALAAYR [E29R] yielded an abundance fitness of -0.558 ± 0.068.
Work on QKPVSAYALFFRDTQAAIKGQNPNATFGSVSKIVASMWDSLGEEQKQVYKRKTEAAKKEYLKALAAYR [E29S] yielded an abundance fitness of -0.341 ± 0.067.
For QKPVSAYALFFRDTQAAIKGQNPNATFGTVSKIVASMWDSLGEEQKQVYKRKTEAAKKEYLKALAAYR [E29T], the abundance fitness was -0.495 ± 0.077.
QKPVSAYALFFRDTQAAIKGQNPNATFGVVSKIVASMWDSLGEEQKQVYKRKTEAAKKEYLKALAAYR [E29V] showed an abundance fitness of -0.618 ± 0.099.
For QKPVSAYALFFRDTQAAIKGQNPNATFGWVSKIVASMWDSLGEEQKQVYKRKTEAAKKEYLKALAAYR [E29W], the abundance fitness was -0.158 ± 0.17.
QKPVSAYALFFRDTQAAIKGQNPNATFGYVSKIVASMWDSLGEEQKQVYKRKTEAAKKEYLKALAAYR [E29Y] showed an abundance fitness of -0.372 ± 0.095.
In the case of QKPVSAYALFFRDTQAAIKGQNPNATFGEASKIVASMWDSLGEEQKQVYKRKTEAAKKEYLKALAAYR [V30A], the abundance fitness is reported as -0.896 ± 0.28.
With QKPVSAYALFFRDTQAAIKGQNPNATFGECSKIVASMWDSLGEEQKQVYKRKTEAAKKEYLKALAAYR [V30C] the abundance fitness was -0.309 ± 0.091.
In the case of QKPVSAYALFFRDTQAAIKGQNPNATFGEESKIVASMWDSLGEEQKQVYKRKTEAAKKEYLKALAAYR [V30E], the abundance fitness is reported as -0.453 ± 0.1.
Work on QKPVSAYALFFRDTQAAIKGQNPNATFGEGSKIVASMWDSLGEEQKQVYKRKTEAAKKEYLKALAAYR [V30G] yielded an abundance fitness of -1.04 ± 0.17.
Work on QKPVSAYALFFRDTQAAIKGQNPNATFGEHSKIVASMWDSLGEEQKQVYKRKTEAAKKEYLKALAAYR [V30H] yielded an abundance fitness of -0.823 ± 0.21.
In the case of QKPVSAYALFFRDTQAAIKGQNPNATFGEISKIVASMWDSLGEEQKQVYKRKTEAAKKEYLKALAAYR [V30I], the abundance fitness is reported as 0.014 ± 0.11.
Variant QKPVSAYALFFRDTQAAIKGQNPNATFGEKSKIVASMWDSLGEEQKQVYKRKTEAAKKEYLKALAAYR [V30K] has an abundance fitness of -0.702 ± 0.15.
In the case of QKPVSAYALFFRDTQAAIKGQNPNATFGELSKIVASMWDSLGEEQKQVYKRKTEAAKKEYLKALAAYR [V30L], the abundance fitness is reported as -0.119 ± 0.051.
With QKPVSAYALFFRDTQAAIKGQNPNATFGEMSKIVASMWDSLGEEQKQVYKRKTEAAKKEYLKALAAYR [V30M] the abundance fitness was -0.162 ± 0.1.
Variant QKPVSAYALFFRDTQAAIKGQNPNATFGEPSKIVASMWDSLGEEQKQVYKRKTEAAKKEYLKALAAYR [V30P] has an abundance fitness of -0.776 ± 0.25.
